We go through one substance from paper doi:10.1101/2025.10.28.685229.

For assay [1], the target named is YF17D VLPs containing only E and M proteins (yellow fever virus, strain 17D). The assay is described as follows: BLI. For orientation: In BLI a coated tip is dipped into the sample, and binding shifts an interference pattern.
The target in assay [2] is YF17D virus particles (live-attenuated YFV 17D) (yellow fever virus, strain 17D). The assay is described as follows: BLI.

For orientation: Kd means the free concentration of one partner at which half of the binding sites on the other are occupied at equilibrium, for simple one-to-one binding. Take “Fc-tagged LRP8-LBD (LRP8 LA1237 with a C-terminal human IgG Fc) (Fc fusion)”: the figures for the Kd in assay [1] and in assay [2] were 300 nM and 460 nM, respectively.
